The experiment has as its target 6×His-GFP-tau (human, UniProt P10636-8 1-441). The experiment can be described thus: pull-down.

B1: GST-TRIM11 (natural protein, human, UniProt Q96F44 1-468, looked up)
chain: MAAPDLSTNLQEEATCAICLDYFTDPVMTDCGHNFCRECIRRCWGQPEGPYACPECRELSPQRNLRPNRPLAKMAEMARRLHPPSPVPQGVCPAHREPLAAFCGDELRLLCAACERSGEHWAHRVRPLQDAAEDLKAKLEKSLEHLRKQMQDALLFQAQADETCVLWQKMVESQRQNVLGEFERLRRLLAEEEQQLLQRLEEEELEVLPRLREGAAHLGQQSAHLAELIAELEGRCQLPALGLLQDIKDALRRVQDVKLQPPEVVPMELRTVCRVPGLVETLRRFRGDVTLDPDTANPELILSEDRRSVQRGDLRQALPDSPERFDPGPCVLGQERFTSGRHYWEVEVGDRTSWALGVCRENVNRKEKGELSAGNGFWILVFLGSYYNSSERALAPLRDPPRRVGIFLDYEAGHLSFYSATDGSLLFIFPEIPFSGTLRPLFSPLSSSPTPMTICRPKGGSGDTLAPQ
As for B1, the binding result was “binds”.

The record behind these values is article PMC11550485 (Science (New York, N.Y.), 2023).
